Source: article PMC8557155 (Annals of Nuclear Medicine, 2021)
Entries after “also recorded” stand apart in the source; their conditions may differ.

Experiment: Safety and tolerability (TEAEs, NCI CTCAE v4.0, DLT)
Format: in vivo, human (Japanese patients)
Description: Safety was evaluated based on adverse events, laboratory tests, vital signs, physical examination, arterial oxygen saturation (SpO2), 12-lead electrocardiogram (ECG), body weight, and Eastern Cooperative Oncology Group (ECOG) performance status. Toxicity was evaluated according to the NCI CTCAE criteria version 4.0 14). Blood count and liver and kidney biochemistry examinations were performed just prior to the treatment and 5 days, 2, 4, 6, and 8 weeks after the first administration (Course 1). In addition, the examinations were performed the second, third, fourth administration (Courses 2, 3, 4), and as per routine clinical follow-up thereafter.
Course 2 treatment and subsequent courses were initiated for subjects who completed the dose-limiting toxicity (DLT) observation period (up to Day 56 of Course 1) without experiencing DLT and who met the eligibility criteria. […] The study treatment was considered tolerable when the number of subjects who experienced DLT was zero or one per six subjects. The appropriateness of DLT, as assessed by the investigator or sub-investigator, was confirmed by the clinical trial medical expert. All adverse events and serious adverse events, reported spontaneously or non-spontaneously, were collected during the study.

[1] = TEAE by severity, n = 6, CTCAE v4.0, 4 × 7.4 GBq + amino acid solution + octreotide LAR

In the case of C[C@@H](O)[C@H](NC(=O)[C@@H]1CSSC[C@H](NC(=O)[C@@H](Cc2ccccc2)NC(=O)CN2CCN(CC(=O)O)CCN(CC(=O)O)CCN(CC(=O)O)CC2)C(=O)N[C@@H](Cc2ccc(O)cc2)C(=O)N[C@H](Cc2c[nH]c3ccccc23)C(=O)N[C@@H](CCCCN)C(=O)N[C@@H]([C@@H](C)O)C(=O)N1)C(=O)O [177Lu-DOTATATE, ^177Lu-DOTA^0-Tyr^3-octreotate, metal not drawn], the “Dose-limiting toxicities (DLT)” value (DLT observation period up to Day 56 of Course 1, n = 6) is reported as “no dose-limiting toxicities; also recorded: no DLT”, the “ALT increased, Grade 1” value [1] is reported as 1 (16.7) n (%) and the “ALT increased, Grade 2” value [1] is reported as 0 n (%). For the same compound, the “ALT increased, Grade 3” value [1] was 0 n (%), the “ALT increased, Grade 4” value [1] was 0 n (%) and the “AST increased, Grade 1” value [1] was 1 (16.7) n (%). For the same compound, the “AST increased, Grade 2” value [1] was 0 n (%), the “AST increased, Grade 3” value [1] was 0 n (%) and the “AST increased, Grade 4” value [1] was 0 n (%). For the same compound, the “Abdominal distension, Grade 1” value [1] was 3 (50.0) n (%), the “Abdominal distension, Grade 2” value [1] was 0 n (%) and the “Abdominal distension, Grade 3” value [1] was 0 n (%). The “Abdominal distension, Grade 4” value [1] was 0 n (%), the “Abdominal pain, Grade 1” value [1] was 1 (16.7) n (%) and the “Abdominal pain, Grade 2” value [1] was 0 n (%). For the same compound, the “Abdominal pain, Grade 3” value [1] was 0 n (%), the “Abdominal pain, Grade 4” value [1] was 0 n (%) and the “All treatment emergent adverse events (TEAEs), Grade 1” value [1] was 0 n (%). The “All treatment emergent adverse events (TEAEs), Grade 2” value [1] was 4 (66.7) n (%), the “All treatment emergent adverse events (TEAEs), Grade 3” value [1] was 2 (33.3) n (%) and the “All treatment emergent adverse events (TEAEs), Grade 4” value [1] was 0 n (%). For the same compound, the “Alopecia, Grade 1” value [1] was 3 (50.0) n (%), the “Alopecia, Grade 2” value [1] was 0 n (%) and the “Alopecia, Grade 3” value [1] was 0 n (%). The “Alopecia, Grade 4” value [1] was 0 n (%), the “Blood and lymphatic system disorders (SOC), Grade 1” value [1] was 0 n (%) and the “Blood and lymphatic system disorders (SOC), Grade 2” value [1] was 1 (16.7) n (%). For the same compound, the “Blood and lymphatic system disorders (SOC), Grade 3” value [1] was 2 (33.3) n (%), the “Blood and lymphatic system disorders (SOC), Grade 4” value [1] was 0 n (%) and the “CPK increased, Grade 1” value [1] was 0 n (%). For the same compound, the “CPK increased, Grade 2” value [1] was 1 (16.7) n (%), the “CPK increased, Grade 3” value [1] was 0 n (%) and the “CPK increased, Grade 4” value [1] was 0 n (%). For the same compound, the “Chest discomfort, Grade 1” value [1] was 1 (16.7) n (%), the “Chest discomfort, Grade 2” value [1] was 0 n (%) and the “Chest discomfort, Grade 3” value [1] was 0 n (%). The “Chest discomfort, Grade 4” value [1] was 0 n (%), the “Chest pain, Grade 1” value [1] was 1 (16.7) n (%) and the “Chest pain, Grade 2” value [1] was 0 n (%). The “Chest pain, Grade 3” value [1] was 0 n (%), the “Chest pain, Grade 4” value [1] was 0 n (%) and the “Cholesterol increased, Grade 1” value [1] was 0 n (%). The “Cholesterol increased, Grade 2” value [1] was 1 (16.7) n (%), the “Cholesterol increased, Grade 3” value [1] was 0 n (%) and the “Cholesterol increased, Grade 4” value [1] was 0 n (%). For the same compound, the “Constipation, Grade 1” value [1] was 2 (33.3) n (%), the “Constipation, Grade 2” value [1] was 0 n (%) and the “Constipation, Grade 3” value [1] was 0 n (%). The “Constipation, Grade 4” value [1] was 0 n (%), the “Creatinine increased, Grade 1” value [1] was 1 (16.7) n (%) and the “Creatinine increased, Grade 2” value [1] was 0 n (%). The “Creatinine increased, Grade 3” value [1] was 0 n (%), the “Creatinine increased, Grade 4” value [1] was 0 n (%) and the “Decreased appetite, Grade 1” value [1] was 3 (50.0) n (%). The “Decreased appetite, Grade 2” value [1] was 1 (16.7) n (%), the “Decreased appetite, Grade 3” value [1] was 0 n (%) and the “Decreased appetite, Grade 4” value [1] was 0 n (%). The “Diarrhea, Grade 1” value [1] was 3 (50.0) n (%), the “Diarrhea, Grade 2” value [1] was 2 (33.3) n (%) and the “Diarrhea, Grade 3” value [1] was 0 n (%). The “Diarrhea, Grade 4” value [1] was 0 n (%), the “Dizziness, Grade 1” value [1] was 1 (16.7) n (%) and the “Dizziness, Grade 2” value [1] was 0 n (%). The “Dizziness, Grade 3” value [1] was 0 n (%), the “Dizziness, Grade 4” value [1] was 0 n (%) and the “Dysgeusia, Grade 1” value [1] was 0 n (%). For the same compound, the “Dysgeusia, Grade 2” value [1] was 1 (16.7) n (%), the “Dysgeusia, Grade 3” value [1] was 0 n (%) and the “Dysgeusia, Grade 4” value [1] was 0 n (%). The “Dyshidrotic eczema, Grade 1” value [1] was 0 n (%), the “Dyshidrotic eczema, Grade 2” value [1] was 1 (16.7) n (%) and the “Dyshidrotic eczema, Grade 3” value [1] was 0 n (%). For the same compound, the “Dyshidrotic eczema, Grade 4” value [1] was 0 n (%), the “Gastrointestinal disorders (SOC), Grade 1” value [1] was 4 (66.7) n (%) and the “Gastrointestinal disorders (SOC), Grade 2” value [1] was 2 (33.3) n (%). The “Gastrointestinal disorders (SOC), Grade 3” value [1] was 0 n (%), the “Gastrointestinal disorders (SOC), Grade 4” value [1] was 0 n (%) and the “General disorders and administration site conditions (SOC), Grade 1” value [1] was 5 (83.3) n (%). For the same compound, the “General disorders and administration site conditions (SOC), Grade 2” value [1] was 0 n (%), the “General disorders and administration site conditions (SOC), Grade 3” value [1] was 0 n (%) and the “General disorders and administration site conditions (SOC), Grade 4” value [1] was 0 n (%). The “Gingivitis, Grade 1” value [1] was 1 (16.7) n (%), the “Gingivitis, Grade 2” value [1] was 0 n (%) and the “Gingivitis, Grade 3” value [1] was 0 n (%). The “Gingivitis, Grade 4” value [1] was 0 n (%), the “Headache, Grade 1” value [1] was 1 (16.7) n (%) and the “Headache, Grade 2” value [1] was 0 n (%). The “Headache, Grade 3” value [1] was 0 n (%), the “Headache, Grade 4” value [1] was 0 n (%) and the “Hyperuricemia, Grade 1” value [1] was 1 (16.7) n (%). For the same compound, the “Hyperuricemia, Grade 2” value [1] was 0 n (%), the “Hyperuricemia, Grade 3” value [1] was 0 n (%) and the “Hyperuricemia, Grade 4” value [1] was 0 n (%). For the same compound, the “Hypocalcemia, Grade 1” value [1] was 0 n (%), the “Hypocalcemia, Grade 2” value [1] was 1 (16.7) n (%) and the “Hypocalcemia, Grade 3” value [1] was 0 n (%). The “Hypocalcemia, Grade 4” value [1] was 0 n (%), the “Immune system disorders (SOC), Grade 1” value [1] was 1 (16.7) n (%) and the “Immune system disorders (SOC), Grade 2” value [1] was 0 n (%). The “Immune system disorders (SOC), Grade 3” value [1] was 0 n (%), the “Immune system disorders (SOC), Grade 4” value [1] was 0 n (%) and the “Infections and infestations (SOC), Grade 1” value [1] was 2 (33.3) n (%). For the same compound, the “Infections and infestations (SOC), Grade 2” value [1] was 1 (16.7) n (%), the “Infections and infestations (SOC), Grade 3” value [1] was 0 n (%) and the “Infections and infestations (SOC), Grade 4” value [1] was 0 n (%). The “Investigations (SOC), Grade 1” value [1] was 1 (16.7) n (%), the “Investigations (SOC), Grade 2” value [1] was 4 (66.7) n (%) and the “Investigations (SOC), Grade 3” value [1] was 0 n (%). For the same compound, the “Investigations (SOC), Grade 4” value [1] was 0 n (%), the “Leukopenia, Grade 1” value [1] was 0 n (%) and the “Leukopenia, Grade 2” value [1] was 2 (33.3) n (%). The “Leukopenia, Grade 3” value [1] was 0 n (%), the “Leukopenia, Grade 4” value [1] was 0 n (%) and the “Lymphopenia, Grade 1” value [1] was 0 n (%). The “Lymphopenia, Grade 2” value [1] was 1 (16.7) n (%), the “Lymphopenia, Grade 3” value [1] was 2 (33.3) n (%) and the “Lymphopenia, Grade 4” value [1] was 0 n (%). For the same compound, the “Malaise, Grade 1” value [1] was 4 (66.7) n (%), the “Malaise, Grade 2” value [1] was 0 n (%) and the “Malaise, Grade 3” value [1] was 0 n (%). The “Malaise, Grade 4” value [1] was 0 n (%), the “Metabolism and nutrition disorders (SOC), Grade 1” value [1] was 3 (50.0) n (%) and the “Metabolism and nutrition disorders (SOC), Grade 2” value [1] was 2 (33.3) n (%). For the same compound, the “Metabolism and nutrition disorders (SOC), Grade 3” value [1] was 0 n (%), the “Metabolism and nutrition disorders (SOC), Grade 4” value [1] was 0 n (%) and the “Musculoskeletal and connective tissue disorders (SOC), Grade 1” value [1] was 1 (16.7) n (%). For the same compound, the “Musculoskeletal and connective tissue disorders (SOC), Grade 2” value [1] was 0 n (%), the “Musculoskeletal and connective tissue disorders (SOC), Grade 3” value [1] was 0 n (%) and the “Musculoskeletal and connective tissue disorders (SOC), Grade 4” value [1] was 0 n (%). For the same compound, the “Musculoskeletal pain, Grade 1” value [1] was 1 (16.7) n (%), the “Musculoskeletal pain, Grade 2” value [1] was 0 n (%) and the “Musculoskeletal pain, Grade 3” value [1] was 0 n (%). For the same compound, the “Musculoskeletal pain, Grade 4” value [1] was 0 n (%), the “Nasopharyngitis, Grade 1” value [1] was 2 (33.3) n (%) and the “Nasopharyngitis, Grade 2” value [1] was 0 n (%). The “Nasopharyngitis, Grade 3” value [1] was 0 n (%), the “Nasopharyngitis, Grade 4” value [1] was 0 n (%) and the “Nausea, Grade 1” value [1] was 3 (50.0) n (%). For the same compound, the “Nausea, Grade 2” value [1] was 0 n (%), the “Nausea, Grade 3” value [1] was 0 n (%) and the “Nausea, Grade 4” value [1] was 0 n (%). The “Nervous system disorders (SOC), Grade 1” value [1] was 3 (50.0) n (%), the “Nervous system disorders (SOC), Grade 2” value [1] was 1 (16.7) n (%) and the “Nervous system disorders (SOC), Grade 3” value [1] was 0 n (%). For the same compound, the “Nervous system disorders (SOC), Grade 4” value [1] was 0 n (%), the “Decreased appetite, frequency (all grades)” value (TEAE, n = 6) was 66.7% and the “Diarrhea, frequency (all grades)” value (TEAE, n = 6) was 83.3%. The “Leukopenia, frequency (all grades)” value (TEAE, n = 6) was 33.3%, the “Lymphopenia, frequency (all grades)” value (TEAE, n = 6) was 50% and the “Malaise, frequency (all grades)” value (TEAE, n = 6) was 66.7%. For the same compound, the “Nausea, frequency (all grades)” value (TEAE, n = 6) was 50%, the “Thrombocytopenia, frequency (all grades)” value (TEAE, n = 6) was 33.3% and the “Lymphocyte, erythrocyte, and leukocyte counts” value (after each treatment, n = 6) was “gradually decreased”. The “Abdominal distension, frequency (all grades)” value (in vivo) was 50%, the “Alopecia, frequency (all grades)” value (in vivo) was 50% and the “Blood creatinine level increased, frequency” value (in vivo) was 16.7%. For the same compound, the Severe infections (in vivo) was “no severe infections”, the “Severe lymphopenia during the follow-up period, frequency” value (in vivo) was 16.7% and the “Secondary hematological malignant diseases” value (n = 6) was “no secondary hematological malignant diseases”. For the same compound, the “Severe (grade ≥ 3) adverse events associated with non-hematological toxicities” value (n = 6) was “no severe (grade ≥ 3) adverse events”.
